Source: US20230322953A1 (HARBOUR BIOMED SHANGHAI, published 2023)

Key:
[1] = biological target: T1, cynomolgus monkey BCMA (ACRO Biosystems, #BCA-C82F4) (cynomolgus monkey, UniProt A0A2K5UD97 1-53); experiment: BLI; KD for cynomolgus monkey BCMA divided by KD for human BCMA
T1 construct: Bought protein; also called cyBCMA.Fc

[2] = biological target: T1, cynomolgus monkey BCMA (ACRO …); experiment: BLI (Octet Red96e), cyBCMA.Fc on SA sensor, 1:1 global fitting
[3] = biological target: T2, biotinylated human BCMA-Fc, Avitag recombinant protein (ACRO Biosystems, #BC7-H82F0) (human, UniProt Q02223 1-54, biotinylated (Avitag)); experiment: BLI (Octet Red96e), biotinylated BCMA-Fc on SA sensor, 1:1 global fitting;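 note: Anti-BCMA antibodies analysed as binding partners of the captured BCMA antigen, with reference signals removed by double referencing before kinetic fitting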
T2 construct: extracellular domain; Bought protein; also called huBCMA.Fc; recombinant human BCMA-ECD-Fc
T2 sequence (looked up): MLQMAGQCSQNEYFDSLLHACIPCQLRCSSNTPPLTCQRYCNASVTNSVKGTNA

[4] = biological target: T3, human CD3 (TCR/CD3 complex) on human T cells (human, UniProt P07766 23-207); experiment: flow cytometry (FACS) on human T cells, Experiment 1
T3 construct: whole, on cells
T3 sequence (P07766 23-207, one chain of several): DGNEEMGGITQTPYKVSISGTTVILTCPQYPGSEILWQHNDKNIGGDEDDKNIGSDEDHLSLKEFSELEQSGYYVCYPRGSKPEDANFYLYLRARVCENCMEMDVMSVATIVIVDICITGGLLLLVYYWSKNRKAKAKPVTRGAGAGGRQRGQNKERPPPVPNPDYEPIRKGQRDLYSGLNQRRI

[5] = biological target: T3, human CD3 (TCR/CD3 complex) on human T …; experiment: flow cytometry (FACS) on human T cells, Experiment 2

T1 sequence (A0A2K5UD97 entry or part of it): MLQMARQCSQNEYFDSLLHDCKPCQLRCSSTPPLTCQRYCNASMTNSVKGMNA

B1: PR000274, anti-BCMA monoclonal antibody CA8-J6M0 (antibody, human IgG1, kappa, V domains shown)
VH: QVQLVQSGAEVKKPGSSVKVSCKASGGTFSNYWMHWVRQAPGQGLEWMGATYRGHSDTYYNQKFKGRVTITADKSTSTAYMELSSLRSEDTAVYYCARGAIYDGYDVLDNWGQGTLVTVSS
VL: DIQMTQSPSSLSASVGDRVTITCSASQDISNYLNWYQQKPGKAPKLLIYYTSNLHSGVPSRFSGSGSGTDFTLTISSLQPEDFATYYCQQYRKLPWTFGQGTKLEIKR
notes: also called Positive control 1; CA8-J6M0 hIgG1
KD ratio (cy BCMA/hu BCMA) [1]: 0.06
Kd [2]: 0.0388 nM
koff [2]: 7.76e-06 s⁻¹
kon [2]: 200000 M⁻¹ s⁻¹
Kd [3]: 0.655 nM
koff [3]: 0.000135 s⁻¹
kon [3]: 206000 M⁻¹ s⁻¹

B2: PR000260, anti-CD3 monoclonal antibody SP34 (hIgG1 chimeric antibody) (antibody, V domains shown)
VH: EVQLVESGGGLVQPKGSLKLSCAASGFTFNTYAMNWVRQAPGKGLEWVARIRSKYNNYATYYADSVKDRFTISRDDSQSILYLQMNNLKTEDTAMYYCVRHGNFGNSYVSWFAYWGQGTLVTVSA
VL: QAVVTQESALTTSPGETVTLTCRSSTGAVTTSNYANWVQEKPDHLFTGLIGGTNKRAPGVPARFSGSLIGDKAALTITGAQTEDEAIYFCALWYSNLWVFGGGTKLTVLG
Maximum MFI [4]: 7160 MFI
Maximum MFI [5]: 6030 MFI

B3: PR001997 (bispecific antibody, IgG1)
chain 1: EVQLLESGGGLVQPGGSLRLSCAASGFTFNTYAMNWVRQAPGKGLEWVSRIRSKYNNYATYYADSVKDRFTISRDDSKSTLYLQMNSLRAEDTAVYYCVRHGNFGNSYVSWFAYWGQGTLVTVSSASTKGPSVFPLAPSSKSTSGGTAALGCLVKDYFPEPVTVSWNSGALTSGVHTFPAVLQSSGLYSLSSVVTVPSSSLGTQTYICNVNHKPSNTKVDKKVEPKSC
chain 2: QAVVTQEPSLTVSPGGTVTLTCRSSTGAVTTSNYANWVQQKPGQAPRGLIGGTNKRAPWTPARFSGSLLGDKAALTLLGAQPEDEAEYFCALWYSNLWVFGGGTKLTVLGQPKAAPSVTLFPPSSEELQANKATLVCLISDFYPGAVTVAWKADSSPVKAGVETTTPSKQSNNKYAASSYLSLTPEQWKSHRSYSCQVTHEGSTVEKTVAPTECSDKTHTCPPCPAPEAAGGPSVFLFPPKPKDTLMISRTPEVTCVVVDVSHEDPEVKFNWYVDGVEVHNAKTKPREEQYNSTYRVVSVLTVLHQDWLNGKEYKCKVSNKALGAPIEKTISKAKGQPREPQVYTLPPCREEMTKNQVSLWCLVKGFYPSDIAVEWESNGQPENNYKTTPPVLDSDGSFFLYSKLTVDKSRWQQGNVFSCSVMHEALHNHYTQKSLSLSPGK
chain 3: EVQLVETGGGLIQPGGSLRLSCAASGFTVSSNYMTWVRQAPGKGLEWVSVIFSGGSTYYADSVKGRFTISRDNSKNTLYLQMNSLRAEDTAVYYCARRIAVAGHDVFDIWGQGTMVTVSSASEPKSSDKTHTCPPCPAPEAAGGPSVFLFPPKPKDTLMISRTPEVTCVVVDVSHEDPEVKFNWYVDGVEVHNAKTKPREEQYNSTYRVVSVLTVLHQDWLNGKEYKCKVSNKALGAPIEKTISKAKGQPREPQVCTLPPSREEMTKNQVSLSCAVKGFYPSDIAVEWESNGQPENNYKTTPPVLDSDGSFFLVSKLTVDKSRWQQGNVFSCSVMHEALHNHYTQKSLSLSPGK
notes: Structure 13 (Fab(cross Fd/LC)-Fc-VH): CD3 Fab from PR000511, BCMA VH from PR001035; IgG1 knob/hole, AAG
Maximum MFI [5]: 4460 MFI

B4: PR002000 (bispecific antibody, IgG1)
chain 1: QAVVTQEPSLTVSPGGTVTLTCRSSTGAVTTSNYANWVQQKPGQAPRGLIGGTNKRAPWTPARFSGSLLGDKAALTLLGAQPEDEAEYFCALWYSNLWVFGGGTKLTVLGGGQSGQGGSGGGGSEVQLVESGGGLVQPGGSLKLSCAASGFTFNTYAMNWVRQASGKGLEWVGRIRSKYNNYATYYADSVKDRFTISRDDSKSTLYLQMNSLKTEDTAVYYCVRHGNFGNSYVSWFAYWGQGTLVTVSSASEPKSSDKTHTCPPCPAPEAAGGPSVFLFPPKPKDTLMISRTPEVTCVVVDVSHEDPEVKFNWYVDGVEVHNAKTKPREEQYNSTYRVVSVLTVLHQDWLNGKEYKCKVSNKALGAPIEKTISKAKGQPREPQVYTLPPCREEMTKNQVSLWCLVKGFYPSDIAVEWESNGQPENNYKTTPPVLDSDGSFFLYSKLTVDKSRWQQGNVFSCSVMHEALHNHYTQKSLSLSPGK
chain 2: EVQLVETGGGLIQPGGSLRLSCAASGFPVSSNYMSWVRQAPGKGLEWVSVIFSGGRTYYADSVKGRFTISRDNSKNTLYLQMNSLRAEDTAVYYCARRNWIDGRDAFDIWGQGTMVTVSSASEPKSSDKTHTCPPCPAPEAAGGPSVFLFPPKPKDTLMISRTPEVTCVVVDVSHEDPEVKFNWYVDGVEVHNAKTKPREEQYNSTYRVVSVLTVLHQDWLNGKEYKCKVSNKALGAPIEKTISKAKGQPREPQVCTLPPSREEMTKNQVSLSCAVKGFYPSDIAVEWESNGQPENNYKTTPPVLDSDGSFFLVSKLTVDKSRWQQGNVFSCSVMHEALHNHYTQKSLSLSPGK
notes: Structure 20 (scFv(VL-VH)-Fc-VH): CD3 scFv from PR000510, BCMA VH from PR000943; IgG1 knob/hole, AAG
Maximum MFI [5]: 1730 MFI

B5: PR001998 (bispecific antibody, IgG1)
chain 1: EVQLLESGGGLVQPGGSLRLSCAASGFTFNTYAMNWVRQAPGKGLEWVSRIRSKYNNYATYYADSVKDRFTISRDDSKSTLYLQMNSLRAEDTAVYYCVRHGNFGNSYVSWFAYWGQGTLVTVSSASTKGPSVFPLAPSSKSTSGGTAALGCLVKDYFPEPVTVSWNSGALTSGVHTFPAVLQSSGLYSLSSVVTVPSSSLGTQTYICNVNHKPSNTKVDKKVEPKSC
chain 2: QAVVTQEPSLTVSPGGTVTLTCRSSTGAVTTSNYANWVQQKPGQAPRGLIGGTNKRAPWTPARFSGSLLGDKAALTLLGAQPEDEAEYFCALWYSNLWVFGGGTKLTVLGQPKAAPSVTLFPPSSEELQANKATLVCLISDFYPGAVTVAWKADSSPVKAGVETTTPSKQSNNKYAASSYLSLTPEQWKSHRSYSCQVTHEGSTVEKTVAPTECSDKTHTCPPCPAPEAAGGPSVFLFPPKPKDTLMISRTPEVTCVVVDVSHEDPEVKFNWYVDGVEVHNAKTKPREEQYNSTYRVVSVLTVLHQDWLNGKEYKCKVSNKALGAPIEKTISKAKGQPREPQVYTLPPCREEMTKNQVSLWCLVKGFYPSDIAVEWESNGQPENNYKTTPPVLDSDGSFFLYSKLTVDKSRWQQGNVFSCSVMHEALHNHYTQKSLSLSPGK
chain 3: EVQLVETGGGLIQPGGSLRLSCAASGFTVSDNYMTWVRQAPGKGLEWVSVIFSGGNTYYADSVKGRFTISRDNAKNTLYLQMNSLRAEDTALYYCARRNYDDTRGTDVFDIWGQGTMVTVSSASEPKSSDKTHTCPPCPAPEAAGGPSVFLFPPKPKDTLMISRTPEVTCVVVDVSHEDPEVKFNWYVDGVEVHNAKTKPREEQYNSTYRVVSVLTVLHQDWLNGKEYKCKVSNKALGAPIEKTISKAKGQPREPQVCTLPPSREEMTKNQVSLSCAVKGFYPSDIAVEWESNGQPENNYKTTPPVLDSDGSFFLVSKLTVDKSRWQQGNVFSCSVMHEALHNHYTQKSLSLSPGK
notes: Structure 13 (Fab(cross Fd/LC)-Fc-VH): CD3 Fab from PR000511, BCMA VH from PR001046; IgG1 knob/hole, AAG
Maximum MFI [5]: 3320 MFI

B6: PR001999 (bispecific antibody, IgG1)
chain 1: QAVVTQEPSLTVSPGGTVTLTCRSSTGAVTTSNYANWVQQKPGQAPRGLIGGTNKRAPWTPARFSGSLLGDKAALTLLGAQPEDEAEYFCALWYSNLWVFGGGTKLTVLGGGQSGQGGSGGGGSEVQLVESGGGLVQPGGSLKLSCAASGFTFNTYAMNWVRQASGKGLEWVGRIRSKYNNYATYYADSVKDRFTISRDDSKSTLYLQMNSLKTEDTAVYYCVRHGNFGNSYVSWFAYWGQGTLVTVSSASEPKSSDKTHTCPPCPAPEAAGGPSVFLFPPKPKDTLMISRTPEVTCVVVDVSHEDPEVKFNWYVDGVEVHNAKTKPREEQYNSTYRVVSVLTVLHQDWLNGKEYKCKVSNKALGAPIEKTISKAKGQPREPQVYTLPPCREEMTKNQVSLWCLVKGFYPSDIAVEWESNGQPENNYKTTPPVLDSDGSFFLYSKLTVDKSRWQQGNVFSCSVMHEALHNHYTQKSLSLSPGK
chain 2: EVQLLESGGGLVQPGGSLRLSCAASGFTFSSYAMIWVRQAPGKGLEWVSGISESGGSTYYADSVKGRFTISRDNSKNTLYLQMNSLRAEDTAVYFCVKDLDDILTGYYKDYWGQGTLVTVSSASEPKSSDKTHTCPPCPAPEAAGGPSVFLFPPKPKDTLMISRTPEVTCVVVDVSHEDPEVKFNWYVDGVEVHNAKTKPREEQYNSTYRVVSVLTVLHQDWLNGKEYKCKVSNKALGAPIEKTISKAKGQPREPQVCTLPPSREEMTKNQVSLSCAVKGFYPSDIAVEWESNGQPENNYKTTPPVLDSDGSFFLVSKLTVDKSRWQQGNVFSCSVMHEALHNHYTQKSLSLSPGK
notes: IgG1 knob/hole, AAG
Maximum MFI [5]: 1170 MFI

B7: PR002002 (bispecific antibody, IgG1)
chain 1: QAVVTQEPSLTVSPGGTVTLTCRSSTGAVTTSNYANWVQQKPGQAPRGLIGGTNKRAPWTPARFSGSLLGDKAALTLLGAQPEDEAEYFCALWYSNLWVFGGGTKLTVLGGGQSGQGGSGGGGSEVQLVESGGGLVQPGGSLKLSCAASGFTFNTYAMNWVRQASGKGLEWVGRIRSKYNNYATYYADSVKDRFTISRDDSKSTLYLQMNSLKTEDTAVYYCVRHGNFGNSYVSWFAYWGQGTLVTVSSASEPKSSDKTHTCPPCPAPEAAGGPSVFLFPPKPKDTLMISRTPEVTCVVVDVSHEDPEVKFNWYVDGVEVHNAKTKPREEQYNSTYRVVSVLTVLHQDWLNGKEYKCKVSNKALGAPIEKTISKAKGQPREPQVYTLPPCREEMTKNQVSLWCLVKGFYPSDIAVEWESNGQPENNYKTTPPVLDSDGSFFLYSKLTVDKSRWQQGNVFSCSVMHEALHNHYTQKSLSLSPGK
chain 2: EVQLVETGGGLIQPGGSLRLSCAASGFTVSDNYMTWVRQAPGKGLEWVSVIFSGGNTYYADSVKGRFTISRDNAKNTLYLQMNSLRAEDTALYYCARRNYDDTRGTDVFDIWGQGTMVTVSSASEPKSSDKTHTCPPCPAPEAAGGPSVFLFPPKPKDTLMISRTPEVTCVVVDVSHEDPEVKFNWYVDGVEVHNAKTKPREEQYNSTYRVVSVLTVLHQDWLNGKEYKCKVSNKALGAPIEKTISKAKGQPREPQVCTLPPSREEMTKNQVSLSCAVKGFYPSDIAVEWESNGQPENNYKTTPPVLDSDGSFFLVSKLTVDKSRWQQGNVFSCSVMHEALHNHYTQKSLSLSPGK
notes: Structure 20 (scFv(VL-VH)-Fc-VH): CD3 scFv from PR000510, BCMA VH from PR001046; IgG1 knob/hole, AAG
Maximum MFI [5]: 1120 MFI

B8: PR001046, anti-BCMA HCAb antibody (clone 1005P63B7) (antibody, human IgG1, V domains shown)
VH: EVQLVETGGGLIQPGGSLRLSCAASGFTVSDNYMTWVRQAPGKGLEWVSVIFSGGNTYYADSVKGRFTISRDNAKNTLYLQMNSLRAEDTALYYCARRNYDDTRGTDVFDIWGQGTMVTVSS
KD ratio (cy BCMA/hu BCMA) [1]: 1.54
Kd [2]: 0.119 nM
koff [2]: 7.54e-05 s⁻¹
kon [2]: 633000 M⁻¹ s⁻¹
Kd [3]: 0.0775 nM
koff [3]: 3.56e-05 s⁻¹
kon [3]: 459000 M⁻¹ s⁻¹
